Target: T1, GαoA, wild type, full-length, hexahistidine-tagged (UniProt P09471 1-354)
T1 construct: also called wild type GαoA
Assay: SPR; Biacore 3000; GST-RGS12 RGS domain captured on anti-GST antibody on a CM5 chip; Gαo injected in the GDP·AlF4- state; equilibrium binding isotherm
Conditions: both partners purified

T1 sequence (P09471 whole entry): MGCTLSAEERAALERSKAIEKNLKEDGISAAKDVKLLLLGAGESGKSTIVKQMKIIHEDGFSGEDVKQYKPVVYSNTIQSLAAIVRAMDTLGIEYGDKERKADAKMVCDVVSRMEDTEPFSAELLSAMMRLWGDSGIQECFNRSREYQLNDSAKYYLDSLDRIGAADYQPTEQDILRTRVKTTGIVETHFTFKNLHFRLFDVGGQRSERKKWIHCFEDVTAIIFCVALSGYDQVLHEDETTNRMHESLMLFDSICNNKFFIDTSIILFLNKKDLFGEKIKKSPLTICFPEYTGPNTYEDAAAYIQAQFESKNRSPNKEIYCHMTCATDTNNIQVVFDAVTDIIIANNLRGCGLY

B1: GST fusion of the RGS12 RGS domain (aa 664–885) (domain or fragment, UniProt O14924 664-885, looked up)
chain: DLESATVSDGELTGADLKDCVSNNSLSSNASLPSVQSCRRLRERRVASWAVSFERLLQDPVGVRYFSDFLRKEFSEENILFWQACEYFNHVPAHDKKELSYRAREIFSKFLCSKATTPVNIDSQAQLADDVLRAPHPDMFKEQQLQIFNLMKFDSYTRFLKSPLYQECILAEVEGRALPDSQQVPSSPASKHSLGSDHSSVSTPKKLSGKSKSGRSLNEELG
notes: also called GST-RGS12
- Kd: 1270 nM
